Assay results reported in paper PMC7594496, “Combinatorial multivalent interactions drive cooperative assembly of the COPII coat” (The Journal of Cell Biology, 2020).

Target: T1, Sec23–Sec24 complex (WT) (yeast (S. cerevisiae), UniProt P15303 1-768; P40482 1-926)
T1 construct: Sec23, COPII inner coat subunit, yeast; Co-expressed and co-purified complex; also called Sec23 and His-Sec24; inner coat; source: Sf9 cells (pFastbac), purified (HisTrap HP, HiTrap Q HP)
Assay: liposome flotation (coat recruitment to synthetic liposomes); purified Sar1 (15 µg/ml), Sec23–Sec24 (20 µg/ml), Sec13–Sec31 (30 µg/ml), 0.27 mM major/minor liposomes (0.4 µm), 0.1 mM GMP-PNP, HKM buffer pH 7.0, 30 min at 25°C; liposomes floated through sucrose; bound proteins by SDS-PAGE and SYPRO red
Conditions: both partners purified

T1 sequence (P15303 whole entry, chain 1 of 2): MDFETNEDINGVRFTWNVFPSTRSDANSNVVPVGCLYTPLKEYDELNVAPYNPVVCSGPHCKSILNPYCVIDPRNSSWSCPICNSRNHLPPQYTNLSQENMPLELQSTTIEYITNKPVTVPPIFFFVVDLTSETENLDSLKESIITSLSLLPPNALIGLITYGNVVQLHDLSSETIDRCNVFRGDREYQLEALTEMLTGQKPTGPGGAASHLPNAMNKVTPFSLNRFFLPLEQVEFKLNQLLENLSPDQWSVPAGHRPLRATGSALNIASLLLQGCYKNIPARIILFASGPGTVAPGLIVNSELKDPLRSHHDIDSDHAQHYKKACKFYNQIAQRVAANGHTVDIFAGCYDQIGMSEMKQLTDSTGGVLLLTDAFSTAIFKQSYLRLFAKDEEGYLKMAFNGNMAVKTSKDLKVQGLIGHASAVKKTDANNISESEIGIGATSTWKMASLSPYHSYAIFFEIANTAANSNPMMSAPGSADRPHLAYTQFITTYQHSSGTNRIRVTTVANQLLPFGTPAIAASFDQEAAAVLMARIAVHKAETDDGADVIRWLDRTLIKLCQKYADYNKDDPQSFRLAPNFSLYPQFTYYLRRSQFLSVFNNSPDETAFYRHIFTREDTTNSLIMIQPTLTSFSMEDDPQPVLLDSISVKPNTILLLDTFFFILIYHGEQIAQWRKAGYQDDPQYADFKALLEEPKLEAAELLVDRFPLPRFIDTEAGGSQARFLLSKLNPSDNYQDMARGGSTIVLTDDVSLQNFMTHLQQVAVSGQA
T1 sequence (P40482 whole entry, chain 2 of 2): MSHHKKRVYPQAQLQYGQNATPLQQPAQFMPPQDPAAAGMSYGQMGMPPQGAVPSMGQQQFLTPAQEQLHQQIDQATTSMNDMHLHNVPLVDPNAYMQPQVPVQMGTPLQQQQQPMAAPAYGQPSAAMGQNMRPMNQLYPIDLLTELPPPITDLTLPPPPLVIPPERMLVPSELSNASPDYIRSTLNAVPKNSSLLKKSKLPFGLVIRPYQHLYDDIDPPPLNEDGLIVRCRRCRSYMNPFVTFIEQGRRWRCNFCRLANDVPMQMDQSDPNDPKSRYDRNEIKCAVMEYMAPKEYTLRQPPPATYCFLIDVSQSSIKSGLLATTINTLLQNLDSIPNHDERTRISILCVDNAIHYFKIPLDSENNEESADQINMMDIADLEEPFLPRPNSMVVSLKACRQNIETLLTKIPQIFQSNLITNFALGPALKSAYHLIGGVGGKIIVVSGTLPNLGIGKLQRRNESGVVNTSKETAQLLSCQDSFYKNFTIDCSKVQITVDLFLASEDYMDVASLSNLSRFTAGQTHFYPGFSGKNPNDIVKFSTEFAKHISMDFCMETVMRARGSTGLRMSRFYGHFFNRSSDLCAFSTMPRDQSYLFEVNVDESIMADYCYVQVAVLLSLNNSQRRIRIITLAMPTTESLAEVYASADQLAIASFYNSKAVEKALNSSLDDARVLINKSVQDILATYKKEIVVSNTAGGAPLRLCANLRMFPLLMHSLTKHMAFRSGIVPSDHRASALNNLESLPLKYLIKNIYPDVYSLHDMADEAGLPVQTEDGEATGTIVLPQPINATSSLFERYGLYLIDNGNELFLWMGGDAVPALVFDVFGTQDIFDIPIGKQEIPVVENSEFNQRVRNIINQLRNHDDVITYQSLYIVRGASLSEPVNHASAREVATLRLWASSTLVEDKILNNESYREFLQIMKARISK

B1: Sec13–Sec31 complex (WT) (complex, yeast (S. cerevisiae) | S. cerevisiae)
chain 1: MVVIANAHNELIHDAVLDYYGKRLATCSSDKTIKIFEVEGETHKLIDTLTGHEGPVWRVDWAHPKFGTILASCSYDGKVLIWKEENGRWSQIAVHAVHSASVNSVQWAPHEYGPLLLVASSDGKVSVVEFKENGTTSPIIIDAHAIGVNSASWAPATIEEDGEHNGTKESRKFVTGGADNLVKIWKYNSDAQTYVLESTLEGHSDWVRDVAWSPTVLLRSYLASVSQDRTCIIWTQDNEQGPWKKTLLKEEKFPDVLWRASWSLSGNVLALSGGDNKVTLWKENLEGKWEPAGEVHQ
chain 2: MVKLAEFSRTATFAWSHDKIPLLVSGTVSGTVDANFSTDSSLELWSLLAADSEKPIASLQVDSKFNDLDWSHNNKIIAGALDNGSLELYSTNEANNAINSMARFSNHSSSVKTVKFNAKQDNVLASGGNNGEIFIWDMNKCTESPSNYTPLTPGQSMSSVDEVISLAWNQSLAHVFASAGSSNFASIWDLKAKKEVIHLSYTSPNSGIKQQLSVVEWHPKNSTRVATATGSDNDPSILIWDLRNANTPLQTLNQGHQKGILSLDWCHQDEHLLLSSGRDNTVLLWNPESAEQLSQFPARGNWCFKTKFAPEAPDLFACASFDNKIEVQTLQNLTNTLDEQETETKQQESETDFWNNVSREESKEKPTVFHLQAPTWYGEPSPAAHWAFGGKLVQITPDGKGVSITNPKISGLESNTTLSEALKTKDFKPLINQRLVKVIDDVNEEDWNLLEKLSMDGTEEFLKEALAFDNDESDAQDDANNEKEDDGEEFFQQIETNFQPEGDFSLSGNIEQTISKNLVSGNIKSAVKNSLENDLLMEAMVIALDSNNERLKESVKNAYFAKYGSKSSLSRILYSISKREVDDLVENLDVSQWKFISKAIQNLYPNDIAQRNEMLIKLGDRLKENGHRQDSLTLYLAAGSLDKVASIWLSEFPDLEDKLKKDNKTIYEAHSECLTEFIERFTVFSNFINGSSTINNEQLIAKFLEFINLTTSTGNFELATEFLNSLPSDNEEVKTEKARVLIASGKSLPAQNPATATTSKAKYTNAKTNKNVPVLPTPGMPSTTSIPSMQAPFYGMTPGASANALPPKPYVPATTTSAPVHTEGKYAPPSQPSMASPFVNKTNSSTRLNSFAPPPNPYATATVPATNVSTTSIPQNTFAPIQPGMPIMGDYNAQSSSIPSQPPINAVSGQTPHLNRKANDGWNDLPLKVKEKPSRAKAVSVAPPNILSTPTPLNGIPANAASTMPPPPLSRAPSSVSMVSPPPLHKNSRVPSLVATSESPRASISNPYAPPQSSQQFPIGTISTANQTSNTAQVASSNPYAPPPQQRVATPLSGGVPPAPLPKASNPYAPTATTQPNGSSYPPTGPYTNNHTMTSPPPVFNKPPTGPPPISMKKRSNKLASIEQNPSQGATYPPTLSSSASPLQPSQPPTLASQVNTSAENVSHEIPADQQPIVDFLKEELARVTPLTPKEYSKQLKDCDKRLKILFYHLEKQDLLTQPTIDCLHDLVALMKEKKYKEAMVIHANIATNHAQEGGNWLTGVKRLIGIAEATLN
notes: Sec13, COPII outer coat subunit, yeast; Sec31, COPII outer coat subunit, S. cerevisiae; disordered proline-rich region defined as residues 764-1,174; also called outer coat; WT Sec31; source: Sf9 cells (pFastbac), purified (HisTrap HP, TEV cleavage of the 6xHis tag on Sec31, HiTrap Q HP); not shown: His6, N-terminal, cleaved
Q: Does B1 bind?
A: Result: binds
